Experimental data from the Immune Epitope Database (IEDB).

Tests used:
Assay in all cases: IEDB peptide-MHC binding, purified MHC/competitive/radioactivity; filed as Kd, often an IC50 or EC50 that approximates it; ≥ and ≤ were set here for values at or beyond the usual limits of such assays
Settings in all cases: source organism: Severe acute respiratory syndrome coronavirus 2
HLA-A*26:01 = target: HLA-A*26:01
HLA-B*15:01 = target: HLA-B*15:01
HLA-B*18:01 = target: HLA-B*18:01
HLA-B*44:02 = target: HLA-B*44:02
HLA-B*44:03 = target: HLA-B*44:03
HLA-A*02:01 = target: HLA-A*02:01
HLA-B*51:01 = target: HLA-B*51:01
HLA-B*07:02 = target: HLA-B*07:02
HLA-A*01:01 = target: HLA-A*01:01

Sequence | Kd (HLA-A*26:01) [µM] | Kd (HLA-B*15:01) [µM] | Kd (HLA-B*18:01) [µM] | Kd (HLA-B*44:02) [µM] | Kd (HLA-B*44:03) [µM] | Kd (HLA-A*02:01) [µM] | Kd (HLA-B*51:01) [µM] | Kd (HLA-B*07:02) [µM] | Kd (HLA-A*01:01) [µM]
EEFEPSTQYEY | 18.8 | 0.078 | 0.0011 | 0.05 | 0.00041 | – | – | – | –
SLEDKAFQL | – | 1.58 | – | – | – | 0.02 | – | – | –
NATNVVIKV | ≥ 43.4 | – | – | – | 8.11 | – | 0.536 | – | –
FASEAARVV | 0.734 | 2.55 | ≥ 49.5 | – | – | 0.495 | 0.207 | 8.55 | –
ELPDEFVVVTV | 0.072 | ≥ 35.1 | 1.13 | – | – | 0.0016 | – | – | –
APHGHVMVEL | – | – | – | – | – | – | – | 0.0061 | –
ELPDEFVVV | 6.86 | – | – | – | – | 0.46 | – | – | –
KNIDGYFKIY | – | 1.45 | – | – | – | 11.8 | – | – | –
KRVDWTIEY | – | 0.356 | – | – | – | – | ≥ 22.7 | – | –
EIKESVQTF | 0.0078 | 4.93 | – | ≥ 37.2 | – | – | – | – | –
DEFVVVTV | 9.55 | 2.05 | 0.0005 | 2.79 | 1.28 | 13 | 12.8 | ≥ 52.8 | –
FGDDTVIEV | – | 2.38 | – | – | – | – | ≥ 45.7 | – | –
VATSRTLSY | 11.8 | 0.267 | – | – | – | – | – | – | 18.8
APRITFGGP | – | – | – | – | – | 0.893 | – | 0.059 | –
VGYLQPRTF | – | 0.777 | 0.707 | – | – | – | – | – | –
HADQLTPTW | – | 13.4 | 3.35 | 5.26 | 1.8 | – | – | – | –
STSAFVETV | 12.1 | 10.4 | – | – | – | 0.026 | – | 8.86 | 12.7
LEDKAFQL | – | 14.7 | 0.035 | ≥ 35.4 | 0.208 | 3.89 | – | – | –
